Columns and labels:
[1] = biological target: T1, Cynomolgus monkey (cyno) glucagon receptor extracellular domain human Fc fusion protein (cynomolgus monkey); assay: SPR (Biacore T200), receptor-Fc captured on anti-human Fc chip, mAb5 Fab as analyte, 25° C.; dissociation too slow, limit reported
T1 construct: extracellular domain
Procedure: (§1) An anti-human Fc sensor chip was prepared by activating all flow cells of a Biacore CM4 sensor chip with a 1:1 (v/v) mixture of 400 mM EDC and 100 mM NHS for 7 minutes, at a flow rate of 10 μL/min. Goat anti-human Fc antibody (Southern Biotech) was diluted to 50 μg/mL in 10 mM sodium acetate pH 5.0 and injected on all flow cells for 7 minutes at 20 μL/min. All flow cells were blocked with 100 mM ethylenediamine in 150 mM borate buffer pH 8.5 for 7 minutes at 10 μL/min. The running buffer for this immobilization procedure was 10 mM HEPES, 150 mM NaCl, 0.05% (v/v) TWEEN® 20, pH 7.4.
(§2) The following kinetics experiments were performed at 25° C. and 37° C. using a running buffer of 10 mM HEPES, 150 mM NaCl, 0.05% (v/v) TWEEN® 20, pH 7.4, 1 mg/mL BSA.
(§3) All experiments were performed on a Biacore™ T200 surface Plasmon resonance biosensor (GE Lifesciences, Piscataway N.J.). Human and cynomolgus monkey (cyno) glucagon receptor extracellular domain human Fc fusion proteins were captured onto downstream flow cells (flow cells 2, 3, respectively) at 2 μg/mL at a flow rate of 10 μL/min for 3 minutes. […] After the analyte injection, dissociation was monitored for 10 minutes (for the 20 nM and 100 nM mAb5 Fab analyte samples) or 30 seconds (for the 0.16, 0.8, and 4 nM mAb5 Fab analyte samples). Dissociation was monitored for 30 seconds and 10 minutes for buffer analyte cycles. […]

[2] = biological target: T2, Human glucagon receptor extracellular domain human Fc fusion protein (human, UniProt P47871 26-136, limits assumed); assay: SPR (Biacore T200), receptor-Fc captured on anti-human Fc chip, mAb5 Fab as analyte, 37° C.
T2 construct: also called glucagon receptor Fc fusion protein; not shown: human Fc
T2 sequence (P47871 26-136 limits assumed): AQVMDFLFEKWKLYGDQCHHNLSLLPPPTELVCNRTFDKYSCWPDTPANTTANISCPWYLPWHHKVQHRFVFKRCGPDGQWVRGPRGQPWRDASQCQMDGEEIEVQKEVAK
Procedure: as §1, §2
(§4) All experiments were performed on a Biacore™ T200 surface Plasmon resonance biosensor (GE Lifesciences, Piscataway N.J.). Human and cynomolgus monkey (cyno) glucagon receptor extracellular domain human Fc fusion proteins were captured onto downstream flow cells (flow cells 2, 3, respectively) at 2 μg/mL at a flow rate of 10 μL/min for 3 minutes. Flow cell 1 was used as a blank reference surface. Following capture of glucagon receptor Fc fusion proteins, analyte (buffer, or mAb5 Fab) was injected at 30 μL/min on all flow cells for two minutes. Multiple mAb5 Fab analyte concentrations were tested. The mAb5 Fab analyte concentrations were 0.16, 0.8, 4, 20 and 100 nM. After the analyte injection, dissociation was monitored for 10 minutes (for the 20 nM and 100 nM mAb5 Fab analyte samples) or 30 seconds (for the 0.16, 0.8, and 4 nM mAb5 Fab analyte samples). Dissociation was monitored for 30 seconds and 10 minutes for buffer analyte cycles. Following analyte binding and dissociation all flow cells were regenerated with four 1-minute injections of 75 mM phosphoric acid. The sensorgram data were double referenced prior to curve fitting (double referencing as described in Myszka, D. G., 1999, J. Mol. Recognit., 12:279-284. The double referenced sensorgrams were fit globally to a simple 1:1 Langmuir with mass transport binding model using the Biacore™ T200 evaluation software. The binding affinity data for anti-glucagon receptor antagonist antibody mAb5 binding to human and cyno glucagon receptor are shown below in Table 4.

[3] = biological target: T1, Cynomolgus monkey (cyno) glucagon …; assay: as above
Procedure: as §1, §2, §4

[4] = biological target: T1, Cynomolgus monkey (cyno) glucagon …; assay: SPR (Biacore T200), receptor-Fc captured on anti-human Fc chip, mAb5 Fab as analyte, 25° C.; limit reported
Procedure: as §1, §2, §3

[5] = biological target: T2, Human glucagon receptor extracellular …; assay: SPR (Biacore T200), receptor-Fc captured on anti-human Fc chip, mAb5 Fab as analyte, 25° C.
Procedure: as §1, §2, §4

[6] = biological target: T1, Cynomolgus monkey (cyno) glucagon …; assay: as above
Procedure: as §1, §2, §4

B1: mAb5 Fab (Fab, V domains shown)
VH: QVQLVQSGAEVKKPGASVKVSCKASGYTFTDFSVHWVRQAPGQGLEWMGWINTETDETSYADDFKGRVTMTRDTSTSTVYMELSSLRSEDTAVYYCVKSRYWSYGPPDYWGQGTTVTVSS
VL: DIQMTQSPSSLSASVGDRVTITCQASQNIRTAVVWYQQKPGKAPKLLIYLASNRHSGVPSRFSGSGSGTDFTFTISSLQPEDIATYYCLQHWTYPFTFGGGTKVEIK
notes: also called Fab of anti-glucagon receptor antagonist antibody mAb5
Q: What does the source list for B1?
A: koff [1]: < 8.5e-05 s⁻¹; Kd [2]: 750 pM; koff [2]: 0.00049 s⁻¹; kon [2]: 650000 M⁻¹ s⁻¹; t1/2 [2]: 24 min; Kd [3]: 720 pM; koff [3]: 0.00054 s⁻¹; kon [3]: 750000 M⁻¹ s⁻¹; t1/2 [3]: 21 min; Kd [4]: < 170 pM; t1/2 [4]: > 136 min; Kd [5]: 220 pM; koff [5]: 0.0001 s⁻¹; kon [5]: 460000 M⁻¹ s⁻¹; t1/2 [5]: 116 min; kon [6]: 500000 M⁻¹ s⁻¹
